According to PMC10080908:
Values joined by “and” are separate entries in the source; they are usually repeats but may differ in a detail not shown here. Identical values can stand only once.

Legend:
UBXN7-WT (human) [1] = target: UBXN7-WT (human) (UniProt O94888); assay: ITC; VP-ITC; 200 µM RNF111 RING domain injected (20 x 10 µl) into 10 µM UBXN7-WT or UBXN7-UAS, or into 15 µM UBXN7-∆UAS, in the cell; 25 °C; phosphate-buffered saline pH 7.4, 1 mM TCEP; single binding site model
UBXN7-WT (human) [2] = target: UBXN7-WT (human) (UniProt O94888); assay: ITC; VP-ITC, 25 °C, PBS pH 7.4 with 1 mM TCEP; 200 µM RNF111 RING domain injected (20 x 10 µl) into 10 µM UBXN7-WT or UBXN7-UAS or 15 µM UBXN7-∆UAS; single binding site model
[3] = target: UBXN7-UAS recombinant protein (human) (UniProt O94888); assay: as above
UBXN7-UAS recombinant protein (human), sequence (O94888 94-284): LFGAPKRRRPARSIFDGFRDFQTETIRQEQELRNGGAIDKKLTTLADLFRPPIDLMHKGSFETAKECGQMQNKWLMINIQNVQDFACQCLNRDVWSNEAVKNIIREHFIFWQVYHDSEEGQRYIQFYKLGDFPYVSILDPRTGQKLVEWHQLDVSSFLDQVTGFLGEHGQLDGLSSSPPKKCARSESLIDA

UBXN7-WT (human), sequence (O94888 whole entry, the tested form may be a part): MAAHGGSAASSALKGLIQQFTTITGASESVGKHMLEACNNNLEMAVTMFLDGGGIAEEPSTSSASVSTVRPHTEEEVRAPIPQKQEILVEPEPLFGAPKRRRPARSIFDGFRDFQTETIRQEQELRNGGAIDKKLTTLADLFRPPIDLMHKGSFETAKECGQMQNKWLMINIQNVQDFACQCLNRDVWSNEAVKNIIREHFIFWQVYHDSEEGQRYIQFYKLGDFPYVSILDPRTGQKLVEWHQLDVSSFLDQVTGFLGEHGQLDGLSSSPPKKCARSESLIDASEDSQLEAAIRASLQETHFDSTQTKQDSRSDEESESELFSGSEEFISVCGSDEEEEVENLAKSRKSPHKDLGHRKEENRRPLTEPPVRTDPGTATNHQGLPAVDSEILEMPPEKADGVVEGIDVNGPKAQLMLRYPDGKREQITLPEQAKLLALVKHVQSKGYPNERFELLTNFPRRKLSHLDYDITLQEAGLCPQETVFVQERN

| Kd (UBXN7-WT (human) [1]) | stoichiometry N (UBXN7-WT (human) [1]) | Kd (UBXN7-WT (human) [1]; mean) [µM] | stoichiometry N (UBXN7-WT (human) [1]; mean) | Kd (UBXN7-WT (human) [2]) [µM] | stoichiometry N (UBXN7-WT (human) [2]) | Kd [3] [µM] | stoichiometry N [3] | Substance |
| --- | --- | --- | --- | --- | --- | --- | --- | --- |
| 2.49 µM and 2.26 µM | 0.928 and 1.11 | 2.37 | 1.02 |  |  |  |  | RNF111 RING domain (RNF111-RING, aa 895 to Cter) (domain or fragment) |
|  |  |  |  | 2.3 | 1 | 0.9 | 1 | RNF111-RING recombinant protein (domain or fragment) |
